In US20180296696A1 (SANFORD BURNHAM PREBYS MEDICAL DISCOVERY INSTITUTE, published 2018):
Blank lines part the entries; values can stand above or below the molecule they belong to. No end group written: not given here.

Tests used:
Tenascin-R (mouse) [1] = biological target: Tenascin-R (mouse) (UniProt Q8BYI9); assay: peptide-affinity chromatography of PBI mouse brain lysate, LC-MS/MS
Versican core protein [2] = biological target: T1, Versican core protein (mouse, UniProt Q62059 24-3357, limits assumed); assay: peptide-affinity chromatography of PBI mouse brain lysate, elution with free CAQK, LC-MS/MS
T1 construct: Native chondroitin sulfate proteoglycan from brain lysate, identified by LC-MS/MS against the Mus musculus UniProt database; also called VCAN

[3] = biological target: Hyaluronan and proteoglycan link protein 4 (mouse) (UniProt Q80WM4); assay: as above
Tenascin-R (mouse) [4] = biological target: Tenascin-R (mouse) (UniProt Q8BYI9); assay: as above
Versican core protein [5] = biological target: T1, Versican core protein; assay: peptide-affinity chromatography of PBI mouse brain lysate, LC-MS/MS (empty column denotes protein was not detected)
Method: (§1) Affinity Chromatography and Proteomics. For identifying CAQK binding proteins, mouse brains with brain injury were collected 6 hrs after injury. Using liquid nitrogen, the brains were crushed and ground into powder using a mortar and pestle. Next, brain tissue was lysed in PBS containing 200 mM n-octyl-beta-D-glucopyranoside and protease inhibitor cocktail (Roche) as described (Teesalu et al., PNAS 16157-16162 (2009)). The cleared lysate was loaded on to CAQK or control peptide (CGGK) coated Sulfolink-agarose beads (Pierce, Waltham, Mass.) and incubated at 4° C. for 3-4 hrs. The column was washed with wash buffer (75 mM octyl-beta-D-glucopyranoside and protease inhibitor cocktail in PBS) followed by washing with 0.5 mM control peptide in wash buffer to remove nonspecifically bound proteins. The bound proteins were eluted with 2 mM free CAQK peptide. The eluted factions were pooled, their protein concentration determined by using bicinchoninic acid (BCA) protein assay (Thermo Fischer) and the samples were digested using the Filter-aided Sample Preparation (FASP) method (Wisniewski et al., Nat Methods 6:359-362 (2009)). […] All mass spectra were analyzed with MaxQuant software version 1.5.0.25. […] Empty column denotes protein was not detected.

[6] = biological target: T2, Hyaluronan and proteoglycan link protein 4 (mouse, UniProt Q80WM4 31-400); assay: as above
T2 construct: Native protein from brain lysate, identified by LC-MS/MS; also called Hapln4; HAPLN4
Method: as §1

T1 sequence (Q62059 24-3357 limits assumed): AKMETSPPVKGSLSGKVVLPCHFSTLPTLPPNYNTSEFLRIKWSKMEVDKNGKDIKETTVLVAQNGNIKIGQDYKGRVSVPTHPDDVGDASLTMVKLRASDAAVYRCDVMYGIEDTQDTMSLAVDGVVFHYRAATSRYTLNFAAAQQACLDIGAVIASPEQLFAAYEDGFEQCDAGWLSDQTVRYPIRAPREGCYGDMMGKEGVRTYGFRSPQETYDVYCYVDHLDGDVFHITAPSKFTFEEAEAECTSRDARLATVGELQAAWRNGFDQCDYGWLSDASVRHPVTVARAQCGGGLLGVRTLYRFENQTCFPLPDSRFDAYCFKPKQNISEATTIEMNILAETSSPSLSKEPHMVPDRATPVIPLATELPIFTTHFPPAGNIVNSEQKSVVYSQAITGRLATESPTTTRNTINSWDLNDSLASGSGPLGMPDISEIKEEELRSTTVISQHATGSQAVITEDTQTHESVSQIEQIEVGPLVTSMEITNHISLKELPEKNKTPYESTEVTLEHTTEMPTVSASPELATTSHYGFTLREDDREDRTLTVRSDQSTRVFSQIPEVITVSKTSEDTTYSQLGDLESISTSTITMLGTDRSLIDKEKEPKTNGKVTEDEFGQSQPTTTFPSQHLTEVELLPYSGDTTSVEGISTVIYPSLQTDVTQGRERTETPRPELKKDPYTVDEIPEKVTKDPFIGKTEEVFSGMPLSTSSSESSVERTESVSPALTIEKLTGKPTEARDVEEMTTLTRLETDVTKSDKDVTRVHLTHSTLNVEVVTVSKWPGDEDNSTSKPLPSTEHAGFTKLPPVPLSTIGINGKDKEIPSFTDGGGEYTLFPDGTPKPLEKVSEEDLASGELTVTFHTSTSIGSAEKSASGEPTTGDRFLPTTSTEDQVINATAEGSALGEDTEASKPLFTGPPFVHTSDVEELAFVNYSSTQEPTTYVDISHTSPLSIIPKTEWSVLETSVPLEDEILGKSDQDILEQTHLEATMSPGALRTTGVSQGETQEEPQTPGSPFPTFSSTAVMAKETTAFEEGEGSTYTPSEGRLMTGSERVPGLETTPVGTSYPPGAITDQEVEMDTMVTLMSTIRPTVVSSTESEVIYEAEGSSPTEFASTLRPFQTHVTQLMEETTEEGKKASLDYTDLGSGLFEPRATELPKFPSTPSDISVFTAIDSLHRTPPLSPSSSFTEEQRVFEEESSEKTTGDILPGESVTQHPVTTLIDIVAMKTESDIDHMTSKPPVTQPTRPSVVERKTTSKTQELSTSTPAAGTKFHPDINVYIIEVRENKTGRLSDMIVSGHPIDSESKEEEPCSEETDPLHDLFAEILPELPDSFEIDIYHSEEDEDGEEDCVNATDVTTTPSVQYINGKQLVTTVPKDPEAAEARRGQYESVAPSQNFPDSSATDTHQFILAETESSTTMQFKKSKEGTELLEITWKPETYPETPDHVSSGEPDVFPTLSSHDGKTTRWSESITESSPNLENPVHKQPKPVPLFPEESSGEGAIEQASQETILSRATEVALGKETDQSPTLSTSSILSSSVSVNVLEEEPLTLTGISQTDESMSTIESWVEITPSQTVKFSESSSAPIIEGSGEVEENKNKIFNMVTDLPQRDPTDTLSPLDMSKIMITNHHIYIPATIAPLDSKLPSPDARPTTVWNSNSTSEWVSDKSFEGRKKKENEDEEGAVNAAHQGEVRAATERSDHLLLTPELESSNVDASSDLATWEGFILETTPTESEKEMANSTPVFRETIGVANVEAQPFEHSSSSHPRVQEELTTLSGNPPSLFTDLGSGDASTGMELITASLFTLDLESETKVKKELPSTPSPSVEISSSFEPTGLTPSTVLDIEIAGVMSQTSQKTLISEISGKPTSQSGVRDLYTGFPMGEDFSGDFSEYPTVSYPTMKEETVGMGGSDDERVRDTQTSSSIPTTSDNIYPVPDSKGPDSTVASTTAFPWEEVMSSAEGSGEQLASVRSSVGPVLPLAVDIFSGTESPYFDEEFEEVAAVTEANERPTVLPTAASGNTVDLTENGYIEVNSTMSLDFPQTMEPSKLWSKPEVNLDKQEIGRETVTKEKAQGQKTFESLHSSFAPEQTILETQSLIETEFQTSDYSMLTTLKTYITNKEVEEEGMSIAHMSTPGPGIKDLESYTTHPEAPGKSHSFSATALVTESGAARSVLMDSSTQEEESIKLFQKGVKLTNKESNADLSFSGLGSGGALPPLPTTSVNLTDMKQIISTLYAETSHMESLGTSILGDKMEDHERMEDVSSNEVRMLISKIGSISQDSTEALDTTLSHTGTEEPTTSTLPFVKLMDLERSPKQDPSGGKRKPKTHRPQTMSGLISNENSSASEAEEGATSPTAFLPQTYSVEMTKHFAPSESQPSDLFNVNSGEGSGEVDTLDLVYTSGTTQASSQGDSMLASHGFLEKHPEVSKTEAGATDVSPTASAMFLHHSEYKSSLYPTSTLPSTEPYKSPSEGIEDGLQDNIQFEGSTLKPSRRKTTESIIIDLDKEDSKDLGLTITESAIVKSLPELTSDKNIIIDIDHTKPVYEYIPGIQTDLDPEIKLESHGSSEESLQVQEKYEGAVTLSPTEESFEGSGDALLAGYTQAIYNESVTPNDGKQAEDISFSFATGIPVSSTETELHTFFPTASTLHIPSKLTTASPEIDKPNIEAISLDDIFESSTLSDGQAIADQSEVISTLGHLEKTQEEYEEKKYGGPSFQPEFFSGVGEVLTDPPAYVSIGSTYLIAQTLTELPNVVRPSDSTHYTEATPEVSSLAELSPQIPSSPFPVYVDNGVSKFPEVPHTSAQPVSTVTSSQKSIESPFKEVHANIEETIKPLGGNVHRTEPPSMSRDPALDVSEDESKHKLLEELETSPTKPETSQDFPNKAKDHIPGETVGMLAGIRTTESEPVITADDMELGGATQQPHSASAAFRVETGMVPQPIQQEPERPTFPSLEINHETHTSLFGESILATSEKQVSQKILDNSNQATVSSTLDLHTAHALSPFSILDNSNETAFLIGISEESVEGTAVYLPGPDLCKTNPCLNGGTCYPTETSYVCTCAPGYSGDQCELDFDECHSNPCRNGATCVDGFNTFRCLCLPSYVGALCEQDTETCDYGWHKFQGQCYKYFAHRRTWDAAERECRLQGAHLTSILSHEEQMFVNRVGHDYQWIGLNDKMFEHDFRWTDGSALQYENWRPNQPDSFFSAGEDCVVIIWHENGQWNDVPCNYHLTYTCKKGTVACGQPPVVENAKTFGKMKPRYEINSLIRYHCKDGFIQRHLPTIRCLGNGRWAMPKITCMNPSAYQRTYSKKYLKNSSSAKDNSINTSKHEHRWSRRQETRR
Chain of Tenascin-R (mouse) (Q8BYI9 32-1358 limits assumed): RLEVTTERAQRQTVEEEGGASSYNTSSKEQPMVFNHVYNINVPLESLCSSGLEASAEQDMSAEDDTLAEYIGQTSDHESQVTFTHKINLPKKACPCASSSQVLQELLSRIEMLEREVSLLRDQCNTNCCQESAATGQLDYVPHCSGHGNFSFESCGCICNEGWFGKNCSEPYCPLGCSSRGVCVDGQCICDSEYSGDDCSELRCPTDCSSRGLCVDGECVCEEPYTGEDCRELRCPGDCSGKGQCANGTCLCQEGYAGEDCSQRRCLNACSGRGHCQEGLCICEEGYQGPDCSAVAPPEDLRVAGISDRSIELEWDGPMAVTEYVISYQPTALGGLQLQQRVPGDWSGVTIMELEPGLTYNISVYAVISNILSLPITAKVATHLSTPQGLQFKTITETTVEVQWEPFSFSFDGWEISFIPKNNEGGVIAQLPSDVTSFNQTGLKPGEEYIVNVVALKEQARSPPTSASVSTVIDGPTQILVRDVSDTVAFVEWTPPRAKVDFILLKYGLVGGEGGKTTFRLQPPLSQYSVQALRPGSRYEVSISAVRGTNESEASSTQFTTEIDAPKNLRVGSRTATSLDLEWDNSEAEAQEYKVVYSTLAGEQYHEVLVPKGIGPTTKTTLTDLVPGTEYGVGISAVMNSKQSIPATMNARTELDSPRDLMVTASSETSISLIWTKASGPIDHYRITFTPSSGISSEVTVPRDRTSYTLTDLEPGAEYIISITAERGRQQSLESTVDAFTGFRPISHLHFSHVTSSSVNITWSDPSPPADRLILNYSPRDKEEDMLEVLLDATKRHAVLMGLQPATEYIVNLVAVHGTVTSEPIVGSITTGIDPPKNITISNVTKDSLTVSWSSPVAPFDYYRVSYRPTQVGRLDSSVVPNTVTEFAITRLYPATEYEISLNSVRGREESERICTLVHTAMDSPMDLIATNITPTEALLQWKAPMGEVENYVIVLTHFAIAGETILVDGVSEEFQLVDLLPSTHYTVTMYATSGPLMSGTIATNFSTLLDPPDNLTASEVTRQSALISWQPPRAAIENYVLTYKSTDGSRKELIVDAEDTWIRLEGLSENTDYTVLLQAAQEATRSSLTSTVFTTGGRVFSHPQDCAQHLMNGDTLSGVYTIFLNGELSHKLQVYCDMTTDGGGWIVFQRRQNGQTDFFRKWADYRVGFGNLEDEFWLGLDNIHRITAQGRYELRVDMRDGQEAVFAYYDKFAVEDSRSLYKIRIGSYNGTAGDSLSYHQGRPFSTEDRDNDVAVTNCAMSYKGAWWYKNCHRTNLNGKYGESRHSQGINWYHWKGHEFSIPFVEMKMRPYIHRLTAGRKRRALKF
Chain of Hyaluronan and proteoglycan link protein 4 (mouse) (Q80WM4 31-400 limits assumed): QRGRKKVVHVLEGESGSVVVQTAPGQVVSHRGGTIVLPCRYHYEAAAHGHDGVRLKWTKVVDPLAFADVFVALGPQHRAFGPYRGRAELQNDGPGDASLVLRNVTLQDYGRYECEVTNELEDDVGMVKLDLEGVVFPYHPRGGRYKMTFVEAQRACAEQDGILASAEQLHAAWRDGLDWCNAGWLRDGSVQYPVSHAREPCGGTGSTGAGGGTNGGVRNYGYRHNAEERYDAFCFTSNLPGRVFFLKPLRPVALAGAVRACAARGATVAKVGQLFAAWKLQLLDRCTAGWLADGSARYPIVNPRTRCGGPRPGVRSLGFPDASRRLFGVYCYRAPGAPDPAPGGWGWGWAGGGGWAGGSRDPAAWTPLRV
T2 sequence (Q80WM4 31-400 limits assumed): as above

Log2 LFQ intensity (log2 LFQ intensity) (Tenascin-R (mouse) [1]): 24.1
Molecule: control peptide (CGGK)

Log2 LFQ intensity (log2 LFQ intensity) (Versican core protein [2]): 26
Log2 LFQ intensity (log2 LFQ intensity) [3]: 19.8
Log2 LFQ intensity (log2 LFQ intensity) (Tenascin-R (mouse) [4]): 26.7
Molecule: CAQK peptide

binding result (Versican core protein [5]): no binding
binding result [6]: no binding
Molecule: CGGK (not fully specified (N-terminus, C-terminus), also called CGGK column) [control peptide (CGGK)]
